According to patent publication US20250161473A1 (GAN AND LEE PHARMACEUTICALS, published 2025):

Tests used:
human HER3-His antigen [1] = biological target: T1, human HER3-His antigen (human, UniProt P21860 20-643); assay: SPR (Biacore 8K), antibody captured on Protein A chip, HER3-His at 0.625-40 nM as analyte
T1 construct: not shown: His tag
Method: (§1) The binding ability of naked antibody, HER3-ADC-19, HER3-ADC-20, HER3-ADC-21 to human HER3-His antigen was determined at 7 different concentrations (0.625-40 nM) using protein A biosensor chip.

human HER3-His antigen [2] = biological target: T1, human HER3-His antigen; assay: SPR (Biacore 8K), ADC captured on Protein A chip, HER3-His at 0.625-40 nM as analyte
Method: as §1

TROP-2-his [3] = biological target: T2, TROP-2-his (UniProt P09758 27-274); assay: SPR (Biacore), antibody captured on Protein A chip, TROP-2-his flowed over, 1:1 Langmuir fit
T2 construct: also called antigen TROP-2-his; not shown: his tag
T2 sequence (looked up): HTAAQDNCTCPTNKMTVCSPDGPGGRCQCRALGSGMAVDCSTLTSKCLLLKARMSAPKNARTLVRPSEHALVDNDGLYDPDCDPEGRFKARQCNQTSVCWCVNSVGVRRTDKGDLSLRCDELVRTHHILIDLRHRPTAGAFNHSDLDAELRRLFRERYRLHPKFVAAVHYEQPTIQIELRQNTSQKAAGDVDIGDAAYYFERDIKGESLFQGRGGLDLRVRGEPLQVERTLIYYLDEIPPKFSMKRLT
From the text: (§2) In this test example, the affinity of the TROP-2 antibody and the TROP-2-ADC compound obtained according to the above examples to TROP-2 is detected by means of capturing antibody.
(§3) Use the Sensor Chip Protein A biosensor chip (Cytiva) to capture the antibody (TROP-2 antibody or TROP-2-ADC compound), then flow through the antigen TROP-2-his on the surface of the chip, and use the Biacore K8 instrument (Cytiva) Real-time detection of reaction signals to obtain association and dissociation curves. After the dissociation of each experiment cycle, the chip was washed and regenerated with regeneration buffer. After the experiment, GE Biacore K8 Evaluation version 3.0 software was used to fit the data with the (1:1) Langmuir model to obtain the affinity value.

TROP-2-his [4] = biological target: T2, TROP-2-his; assay: SPR (Biacore), ADC captured on Protein A chip, TROP-2-his flowed over, 1:1 Langmuir fit
From the text: as §2, §3

B1: anti-human HER3 monoclonal antibody (antibody, human IgG1, kappa, V domains shown)
VH: QVQLQQWGAGLLKPSETLSLTCAVYGGSFSGYYWSWIRQPPGKGLEWIGEINHSGSTNYNPSLKSRVTISVETSKNQFSLKLSSVTAADTAVYYCARDKWTWYFDLWGRGTLVTVSS
VL: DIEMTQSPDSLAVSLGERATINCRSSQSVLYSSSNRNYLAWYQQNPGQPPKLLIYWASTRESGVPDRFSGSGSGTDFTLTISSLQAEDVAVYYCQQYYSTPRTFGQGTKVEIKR
notes: also called Naked antibody; HER3 antibody
Binder B1 has a Kd (human HER3-His antigen [1]) of 1.41 nM, a koff (human HER3-His antigen [1]) of 0.000363 s⁻¹ and a kon (human HER3-His antigen [1]) of 257000 M⁻¹ s⁻¹.

B2: HER3-ADC-21 (antibody, human IgG1, kappa, V domains shown)
VH: QVQLQQWGAGLLKPSETLSLTCAVYGGSFSGYYWSWIRQPPGKGLEWIGEINHSGSTNYNPSLKSRVTISVETSKNQFSLKLSSVTAADTAVYYCARDKWTWYFDLWGRGTLVTVSS
VL: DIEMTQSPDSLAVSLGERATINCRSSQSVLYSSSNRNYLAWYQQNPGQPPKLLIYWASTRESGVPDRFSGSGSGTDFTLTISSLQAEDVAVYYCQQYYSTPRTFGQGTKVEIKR
modifications: drug-linker compound 68 coupled to cysteines of the reduced interchain disulfide bonds; positions not given; drug-linker compound 68 (maleimide linker, exatecan derivative) coupled to cysteines of the reduced interchain disulfide bonds; positions not given; DAR 8.00 for the whole antibody
With B2 the Kd (human HER3-His antigen [2]) was 2.08 nM, the koff (human HER3-His antigen [2]) was 0.000451 s⁻¹ and the kon (human HER3-His antigen [2]) was 217000 M⁻¹ s⁻¹.

B3: anti-human TROP-2 monoclonal antibody (anti-hRS7 antibody) (antibody, human IgG1, kappa, V domains shown)
VH: QVQLQQSGSELKKPGASVKVSCKASGYTFTNYGMNWVKQAPGQGLKWMGWINTYTGEPTYTDDFKGRFAFSLDTSVSTAYLQISSLKADDTAVYFCARGGFGSSYWYFDVWGQGSLVTVSS
VL: DIQLTQSPSSLSASVGDRVSITCKASQDVSIAVAWYQQKPGKAPKLLIYSASYRYTGVPDRFSGSGSGTDFTLTISSLQPEDFAVYYCQQHYITPLTFGAGTKVEIKR
notes: also called Naked antibody (anti-TROP-2 monoclonal antibody); TROP-2 antibody
For B3, the Kd (TROP-2-his [3]) was 0.318 nM.

B4: TROP-2-ADC-19 (antibody, human IgG1, kappa, V domains shown)
VH: QVQLQQSGSELKKPGASVKVSCKASGYTFTNYGMNWVKQAPGQGLKWMGWINTYTGEPTYTDDFKGRFAFSLDTSVSTAYLQISSLKADDTAVYFCARGGFGSSYWYFDVWGQGSLVTVSS
VL: DIQLTQSPSSLSASVGDRVSITCKASQDVSIAVAWYQQKPGKAPKLLIYSASYRYTGVPDRFSGSGSGTDFTLTISSLQPEDFAVYYCQQHYITPLTFGAGTKVEIKR
modifications: drug-linker compound 66 coupled to cysteines of the reduced interchain disulfide bonds; positions not given; drug-linker compound 66 (maleimide linker, exatecan derivative) coupled to cysteines of the reduced interchain disulfide bonds; positions not given; DAR 4.65 for the whole antibody
Binder B4 has a Kd (TROP-2-his [4]) of 0.319 nM.

B5: TROP-2-ADC-4 (antibody, human IgG1, kappa, V domains shown)
VH: QVQLQQSGSELKKPGASVKVSCKASGYTFTNYGMNWVKQAPGQGLKWMGWINTYTGEPTYTDDFKGRFAFSLDTSVSTAYLQISSLKADDTAVYFCARGGFGSSYWYFDVWGQGSLVTVSS
VL: DIQLTQSPSSLSASVGDRVSITCKASQDVSIAVAWYQQKPGKAPKLLIYSASYRYTGVPDRFSGSGSGTDFTLTISSLQPEDFAVYYCQQHYITPLTFGAGTKVEIKR
modifications: drug-linker compound 51 coupled to cysteines of the reduced interchain disulfide bonds; positions not given; drug-linker compound 51 (maleimide linker, exatecan derivative) coupled to cysteines of the reduced interchain disulfide bonds; positions not given; DAR 8.49 for the whole antibody
With B5 the Kd (TROP-2-his [4]) was 0.293 nM.

B6: TROP-2-ADC-23 (antibody, human IgG1, kappa, V domains shown)
VH: QVQLQQSGSELKKPGASVKVSCKASGYTFTNYGMNWVKQAPGQGLKWMGWINTYTGEPTYTDDFKGRFAFSLDTSVSTAYLQISSLKADDTAVYFCARGGFGSSYWYFDVWGQGSLVTVSS
VL: DIQLTQSPSSLSASVGDRVSITCKASQDVSIAVAWYQQKPGKAPKLLIYSASYRYTGVPDRFSGSGSGTDFTLTISSLQPEDFAVYYCQQHYITPLTFGAGTKVEIKR
modifications: drug-linker compound 70 coupled to cysteines of the reduced interchain disulfide bonds; positions not given; drug-linker compound 70 (maleimide linker, exatecan derivative) coupled to cysteines of the reduced interchain disulfide bonds; positions not given; DAR 6.42 for the whole antibody
For B6, the Kd (TROP-2-his [4]) was 0.262 nM.

B7: TROP-2-ADC-3 (antibody, human IgG1, kappa, V domains shown)
VH: QVQLQQSGSELKKPGASVKVSCKASGYTFTNYGMNWVKQAPGQGLKWMGWINTYTGEPTYTDDFKGRFAFSLDTSVSTAYLQISSLKADDTAVYFCARGGFGSSYWYFDVWGQGSLVTVSS
VL: DIQLTQSPSSLSASVGDRVSITCKASQDVSIAVAWYQQKPGKAPKLLIYSASYRYTGVPDRFSGSGSGTDFTLTISSLQPEDFAVYYCQQHYITPLTFGAGTKVEIKR
modifications: drug-linker compound 50 coupled to cysteines of the reduced interchain disulfide bonds; positions not given; drug-linker compound 50 (maleimide linker, exatecan derivative) coupled to cysteines of the reduced interchain disulfide bonds; positions not given; DAR 14.74 for the whole antibody
B7 gave a Kd (TROP-2-his [4]) of 0.276 nM.

B8: TROP-2-ADC-21 (antibody, human IgG1, kappa, V domains shown)
VH: QVQLQQSGSELKKPGASVKVSCKASGYTFTNYGMNWVKQAPGQGLKWMGWINTYTGEPTYTDDFKGRFAFSLDTSVSTAYLQISSLKADDTAVYFCARGGFGSSYWYFDVWGQGSLVTVSS
VL: DIQLTQSPSSLSASVGDRVSITCKASQDVSIAVAWYQQKPGKAPKLLIYSASYRYTGVPDRFSGSGSGTDFTLTISSLQPEDFAVYYCQQHYITPLTFGAGTKVEIKR
modifications: drug-linker compound 68 coupled to cysteines of the reduced interchain disulfide bonds; positions not given; drug-linker compound 68 (maleimide linker, exatecan derivative) coupled to cysteines of the reduced interchain disulfide bonds; positions not given; DAR 4.78 for the whole antibody
Binder B8 has a Kd (TROP-2-his [4]) of 0.275 nM.
